From the supplement of paper PMC10567573

B1: PCDHGA10 (parent)
chain: FGIEIEVTDINDNAPKFQAENLDV
B2: FUT8 (parent)
chain: NWRYATGGWETVFRPVSETCTDRS

Variants of: B1
Assay: protein stability index of a GFP-peptide fusion (GPS, HEK-293T) (PSI 1-6); higher = more stable
Settings: c terminus: a fixed tail appended
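Also: lentivirally expressed fusions sorted by FACS into six bins by GFP to DsRed ratio, PSI derived from sequencing read proportions per bin multiplied by bin number.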

Variant | protein stability index
FGIEIEVTDINDNAPKFQAENLDC | 2.8
FGIEIEVTDINDNAPKFQAENLDW | 2.81
FGIEIEVTDINDNAPKFQAENLDL | 3.43
FGIEIEVTDINDNAPKFQAENLDD | 4.22
FGIEIEVTDINDNAPKFQAENLDT | 3.47
FGIEIEVTDINDNAPKFQAENLDR | 3.71
FGIEIEVTDINDNAPKFQAENLDM | 2.5
FGIEIEVTDINDNAPKFQAENLDS | 3.5
FGIEIEVTDINDNAPKFQAENLDY | 2.93
FGIEIEVTDINDNAPKFQAENLDF | 2.64
FGIEIEVTDINDNAPKFQAENLDK | 3.52
FGIEIEVTDINDNAPKFQAENLDN | 3.28
FGIEIEVTDINDNAPKFQAENLDH | 3.6
FGIEIEVTDINDNAPKFQAENLDQ | 3.62
FGIEIEVTDINDNAPKFQAENLDE | 3.46
FGIEIEVTDINDNAPKFQAENLDA | 3.48
FGIEIEVTDINDNAPKFQAENLDP | 3.4
FGIEIEVTDINDNAPKFQAENLDG | 3.7
FGIEIEVTDINDNAPKFQAENLDI | 2.56
FGIEIEVTDINDNAPKFQAENGDV | 3.97
FGIEIEVTDINDNAPKFQAENHDV | 3.4
FGIEIEVTDINDNAPKFQAENVDV | 3.42
FGIEIEVTDINDNAPKFQAENFDV | 2.66
FGIEIEVTDINDNAPKFQAENKDV | 4.02
FGIEIEVTDINDNAPKFQAENPDV | 3.36
FGIEIEVTDINDNAPKFQAENWDV | 2.53
FGIEIEVTDINDNAPKFQAENMDV | 2.84

Variant | protein stability index
FGIEIEVTDINDNAPKFQAENIDV | 3.02
FGIEIEVTDINDNAPKFQAENYDV | 2.83
FGIEIEVTDINDNAPKFQAENNDV | 3.69
FGIEIEVTDINDNAPKFQAENQDV | 3.71
FGIEIEVTDINDNAPKFQAENTDV | 3.65
FGIEIEVTDINDNAPKFQAENSDV | 4.17
FGIEIEVTDINDNAPKFQAENRDV | 3.7
FGIEIEVTDINDNAPKFQAENEDV | 4.39
FGIEIEVTDINDNAPKFQAENLTV | 1.95
FGIEIEVTDINDNAPKFQAENLEV | 2.59
FGIEIEVTDINDNAPKFQAENLFV | 1.55
FGIEIEVTDINDNAPKFQAENLIV | 1.93
FGIEIEVTDINDNAPKFQAENLHV | 1.8
FGIEIEVTDINDNAPKFQAENLVV | 2.56
FGIEIEVTDINDNAPKFQAENLLV | 2.17
FGIEIEVTDINDNAPKFQAENLWV | 1.46
FGIEIEVTDINDNAPKFQAENLMV | 2.52
FGIEIEVTDINDNAPKFQAENLPV | 2.32
FGIEIEVTDINDNAPKFQAENLCV | 1.82
FGIEIEVTDINDNAPKFQAENLSV | 2.06
FGIEIEVTDINDNAPKFQAENLKV | 2.08
FGIEIEVTDINDNAPKFQAENLQV | 2.42
FGIEIEVTDINDNAPKFQAENLAV | 2.3
FGIEIEVTDINDNAPKFQAENLNV | 2.85
FGIEIEVTDINDNAPKFQAENLYV | 1.69
FGIEIEVTDINDNAPKFQAENLGV | 2.29
FGIEIEVTDINDNAPKFQAENLRV | 1.93

Variants of: B2
Assay: as above
Settings: c terminus: a fixed tail appended

Variant | protein stability index
NTRYATGGWETVFRPVSETCTDRS | 3.83
NARYATGGWETVFRPVSETCTDRS | 3.77
NFRYATGGWETVFRPVSETCTDRS | 3.12
NCRYATGGWETVFRPVSETCTDRS | 2.52
NSRYATGGWETVFRPVSETCTDRS | 3.25
NERYATGGWETVFRPVSETCTDRS | 3.94
NHRYATGGWETVFRPVSETCTDRS | 4
NDRYATGGWETVFRPVSETCTDRS | 3.72
NVRYATGGWETVFRPVSETCTDRS | 3.26
NMRYATGGWETVFRPVSETCTDRS | 3.52
NNRYATGGWETVFRPVSETCTDRS | 3.55
NYRYATGGWETVFRPVSETCTDRS | 2.74
NQRYATGGWETVFRPVSETCTDRS | 3.96
NPRYATGGWETVFRPVSETCTDRS | 4.16
NGRYATGGWETVFRPVSETCTDRS | 3.72
WWRYATGGWETVFRPVSETCTDRS | 1.53
KWRYATGGWETVFRPVSETCTDRS | 2.4
EWRYATGGWETVFRPVSETCTDRS | 2.44
VWRYATGGWETVFRPVSETCTDRS | 1.83
AWRYATGGWETVFRPVSETCTDRS | 1.16
IWRYATGGWETVFRPVSETCTDRS | 3.1
LWRYATGGWETVFRPVSETCTDRS | 1.99
HWRYATGGWETVFRPVSETCTDRS | 2.74

Variant | protein stability index
QWRYATGGWETVFRPVSETCTDRS | 4.02
SWRYATGGWETVFRPVSETCTDRS | 2.12
GWRYATGGWETVFRPVSETCTDRS | 2.12
RWRYATGGWETVFRPVSETCTDRS | 2.23
YWRYATGGWETVFRPVSETCTDRS | 2.88
MWRYATGGWETVFRPVSETCTDRS | 1.12
DWRYATGGWETVFRPVSETCTDRS | 1.7
TWRYATGGWETVFRPVSETCTDRS | 1.68
CWRYATGGWETVFRPVSETCTDRS | 2.35
NWRWATGGWETVFRPVSETCTDRS | 2.98
NWRPATGGWETVFRPVSETCTDRS | 3.85
NWRIATGGWETVFRPVSETCTDRS | 2.63
NWRFATGGWETVFRPVSETCTDRS | 2.45
NWRDATGGWETVFRPVSETCTDRS | 3.13
NWRCATGGWETVFRPVSETCTDRS | 2.6
NWRVATGGWETVFRPVSETCTDRS | 3.42
NWRHATGGWETVFRPVSETCTDRS | 3.39
NWRMATGGWETVFRPVSETCTDRS | 2.16
NWRTATGGWETVFRPVSETCTDRS | 3.27
NWRAATGGWETVFRPVSETCTDRS | 3.42
NWRSATGGWETVFRPVSETCTDRS | 3.66
NWRLATGGWETVFRPVSETCTDRS | 2.36
NWRRATGGWETVFRPVSETCTDRS | 3.07

Variant | protein stability index
NWREATGGWETVFRPVSETCTDRS | 4.67
NWRQATGGWETVFRPVSETCTDRS | 3.35
NWRNATGGWETVFRPVSETCTDRS | 3.32
NWRGATGGWETVFRPVSETCTDRS | 4.34
NWRYFTGGWETVFRPVSETCTDRS | 2.43
NWRYPTGGWETVFRPVSETCTDRS | 1.48
NWRYLTGGWETVFRPVSETCTDRS | 2.66
NWRYHTGGWETVFRPVSETCTDRS | 3.69
NWRYWTGGWETVFRPVSETCTDRS | 3.33
NWRYRTGGWETVFRPVSETCTDRS | 2.28
NWRYMTGGWETVFRPVSETCTDRS | 3.05
NWRYKTGGWETVFRPVSETCTDRS | 3.36
NWRYITGGWETVFRPVSETCTDRS | 1.39
NWRYNTGGWETVFRPVSETCTDRS | 2.95
NWRYTTGGWETVFRPVSETCTDRS | 2.33
NWRYYTGGWETVFRPVSETCTDRS | 2.94
NWRYETGGWETVFRPVSETCTDRS | 2.82
NWRYDTGGWETVFRPVSETCTDRS | 3.2
NWRYSTGGWETVFRPVSETCTDRS | 2.36
NWRYCTGGWETVFRPVSETCTDRS | 1.05
NWRYQTGGWETVFRPVSETCTDRS | 2.91
NWTYATGGWETVFRPVSETCTDRS | 3.09
NWCYATGGWETVFRPVSETCTDRS | 2.76

Variant | protein stability index
NWPYATGGWETVFRPVSETCTDRS | 3.06
NWEYATGGWETVFRPVSETCTDRS | 3.75
NWMYATGGWETVFRPVSETCTDRS | 2.44
NWSYATGGWETVFRPVSETCTDRS | 2.69
NWHYATGGWETVFRPVSETCTDRS | 2.85
NWWYATGGWETVFRPVSETCTDRS | 2.46
NWNYATGGWETVFRPVSETCTDRS | 3.83
NWAYATGGWETVFRPVSETCTDRS | 3.58
NWIYATGGWETVFRPVSETCTDRS | 2.32
NWDYATGGWETVFRPVSETCTDRS | 3.62
NWFYATGGWETVFRPVSETCTDRS | 1.97
NWLYATGGWETVFRPVSETCTDRS | 2.69
NWVYATGGWETVFRPVSETCTDRS | 2.85
NWGYATGGWETVFRPVSETCTDRS | 3
NWYYATGGWETVFRPVSETCTDRS | 1.76
NWQYATGGWETVFRPVSETCTDRS | 3.15
NWRYADGGWETVFRPVSETCTDRS | 2.72
NWRYARGGWETVFRPVSETCTDRS | 1.51
NWRYAEGGWETVFRPVSETCTDRS | 2.25
NWRYAMGGWETVFRPVSETCTDRS | 1.74
NWRYAQGGWETVFRPVSETCTDRS | 1.6
NWRYAWGGWETVFRPVSETCTDRS | 1.65
NWRYASGGWETVFRPVSETCTDRS | 1

Variant | protein stability index
NWRYAVGGWETVFRPVSETCTDRS | 2.11
NWRYAYGGWETVFRPVSETCTDRS | 1.96
NWRYANGGWETVFRPVSETCTDRS | 1.48
NWRYAIGGWETVFRPVSETCTDRS | 2.63
NWRYAHGGWETVFRPVSETCTDRS | 1.28
NWRYAPGGWETVFRPVSETCTDRS | 2.44
NWRYALGGWETVFRPVSETCTDRS | 1.73
NWRYAKGGWETVFRPVSETCTDRS | 1.1
NWRYATGFWETVFRPVSETCTDRS | 1.53
NWRYATGWWETVFRPVSETCTDRS | 2.51
NWRYATGNWETVFRPVSETCTDRS | 2.26
NWRYATGEWETVFRPVSETCTDRS | 2.22
NWRYATGSWETVFRPVSETCTDRS | 2.4
NWRYATGMWETVFRPVSETCTDRS | 2.01
NWRYATGLWETVFRPVSETCTDRS | 1.82
NWRYATGPWETVFRPVSETCTDRS | 1.74
NWRYATGCWETVFRPVSETCTDRS | 1.55
NWRYATGIWETVFRPVSETCTDRS | 1.48
NWRYATGTWETVFRPVSETCTDRS | 2.47
NWRYATGKWETVFRPVSETCTDRS | 3.73
NWRYATGHWETVFRPVSETCTDRS | 2.43
NWRYATGAWETVFRPVSETCTDRS | 1.84
NWRYATGDWETVFRPVSETCTDRS | 2.9

Variant | protein stability index
NWRYATGQWETVFRPVSETCTDRS | 1.98
NWRYATGRWETVFRPVSETCTDRS | 1.41
NWRYATPGWETVFRPVSETCTDRS | 2.19
NWRYATCGWETVFRPVSETCTDRS | 2.08
NWRYATSGWETVFRPVSETCTDRS | 1.97
NWRYATRGWETVFRPVSETCTDRS | 1.75
NWRYATIGWETVFRPVSETCTDRS | 2.11
NWRYATAGWETVFRPVSETCTDRS | 2.94
NWRYATYGWETVFRPVSETCTDRS | 2.12
NWRYATMGWETVFRPVSETCTDRS | 1.81
NWRYATNGWETVFRPVSETCTDRS | 2.13
NWRYATTGWETVFRPVSETCTDRS | 2.12
NWRYATQGWETVFRPVSETCTDRS | 2.49
NWRYATHGWETVFRPVSETCTDRS | 2.22
NWRYATEGWETVFRPVSETCTDRS | 3.17
NWRYATFGWETVFRPVSETCTDRS | 2.64
NWRYATWGWETVFRPVSETCTDRS | 1.59
NWRYATKGWETVFRPVSETCTDRS | 2.39
NWRYATLGWETVFRPVSETCTDRS | 1.89
